Assay results taken from PMC13286378, “The SPN-4 Rbfox RNA-binding protein selects maternal mRNAs for CCR4-NOT-dependent clearance in early Caenorhabditis elegans embryos”.

T1: SPN-4 RRM (3xFLAG::SPN-4 RRM::6xHis) (Caenorhabditis elegans, UniProt G5EF02 1-200)
T1 sequence: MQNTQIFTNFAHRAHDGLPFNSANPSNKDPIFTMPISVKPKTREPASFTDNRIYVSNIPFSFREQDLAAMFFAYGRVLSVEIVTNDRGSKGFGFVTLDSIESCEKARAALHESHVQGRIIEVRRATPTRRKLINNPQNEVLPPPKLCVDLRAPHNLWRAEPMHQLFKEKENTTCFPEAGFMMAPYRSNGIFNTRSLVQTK

B1: lin-41(995-1054) (ssRNA)
RNA: GUGCCCUAGCGCUAAAUAUUGUUUUAUUUUAAUGCAUGCUUCCUGCACGCCCCUCCCCCU

Legend:
[1] = target: T1, SPN-4 RRM (3xFLAG::SPN-4 RRM::6xHis); assay: EMSA; 10 mM Tris-HCl pH 7.5, 150 mM NaCl, 0.001% NP-40, 10% glycerol, 0.01 mg/ml tRNA, 0.025% Tween-20; 32 nM RNA, 50 nM-2.9 uM protein; 15 min, room temperature; 8%; settings: protein: recombinant; tags: N-terminal 3xFLAG (MBP removed by TEV), C-terminal 6xHis; label: 5' Cy5
[2] = target: T1, SPN-4 RRM (3xFLAG::SPN-4 RRM::6xHis); assay: EMSA; did not bind specifically; 10 mM Tris-HCl pH 7.5, 150 mM NaCl, 0.001% NP-40, 10% glycerol, 0.01 mg/ml tRNA, 0.025% Tween-20; 32 nM RNA, 50 nM-2.9 uM protein; 15 min, room temperature; 8%; settings: protein: recombinant; tags: N-terminal 3xFLAG (MBP removed by TEV), C-terminal 6xHis; label: 5' Cy5

Binder	Kd [1] [nM]	binding result [2]
B1	308 ± 17.9	
UUAAUGCAUGCUUCCUGCACGCCCC (ssRNA) [lin-41(1023-1047)]	285 ± 29.4	
UUAAUGCAUGCUUCCUACAAACCCC (ssRNA) [lin-41(1023-1047) motif 1]	230 ± 8.1	
UUAAUACAAACUUCCUGCACGCCCC (ssRNA) [lin-41(1023-1047) motif 2]	1640 ± 146	
AUUAGUAUUAUUAUUAUUGCAUGCUCUUACCUCAUCUCUC (ssRNA) [chs-1(40-79)]	174 ± 13.5	
AUUAGUAUUAUUAUUAUUACAAACUCUUACCUCAUCUCUC (ssRNA) [chs-1(40-79) Rbfox mutant control]		no binding
